Measurements reported in article PMC4470865 (Current biology : CB, 2015).

Molecular target: actin filaments (Alexa488 label on 3-20% of the actin in the microscopy assays)
Assay: co-sedimentation

B1: unlabeled Tm1A (recombinant AS-Tm1A, non-muscle Drosophila tropomyosin isoform Tm1A) (natural protein)
chain: MASMTTSIPQGTLLDVLKKKMRQTKEEMEKYKDECEEFHKRLQLEVVRREEAESEVAALNRRIQLLEEDLERSEERLGSATAKLSEASQAADESERIRKALENRTNMEDDKVALLENQLAQAKLIAEEADKKYEEVARKLVLMEQDLERSEEKVELSESKIVELEEELRVVGNNLKSLEVSEEKATQKEETFETQIKVLDHSLKEAEARAEFAERSVQKLQKEVDRLEDDLLNVRGKNKLLQEEMEATLHDIQNM
Question: How did the Kd turn out when B1 was run?
Answer: Its Kd is 46 nM.
